Reference: patent US20220306756A1 (WAKE FOREST UNIVERSITY HEALTH SCIENCES, published 2022)

How the values were obtained:
Experiment in all cases: RIA, competition with 125I-Ang-(1-12)
[1] = molecular target: T1, purified rat angiotensinogen (AGT) protein (rat, UniProt P01015 25-477)
T1 construct: also called rat AGT
T1 sequence (looked up): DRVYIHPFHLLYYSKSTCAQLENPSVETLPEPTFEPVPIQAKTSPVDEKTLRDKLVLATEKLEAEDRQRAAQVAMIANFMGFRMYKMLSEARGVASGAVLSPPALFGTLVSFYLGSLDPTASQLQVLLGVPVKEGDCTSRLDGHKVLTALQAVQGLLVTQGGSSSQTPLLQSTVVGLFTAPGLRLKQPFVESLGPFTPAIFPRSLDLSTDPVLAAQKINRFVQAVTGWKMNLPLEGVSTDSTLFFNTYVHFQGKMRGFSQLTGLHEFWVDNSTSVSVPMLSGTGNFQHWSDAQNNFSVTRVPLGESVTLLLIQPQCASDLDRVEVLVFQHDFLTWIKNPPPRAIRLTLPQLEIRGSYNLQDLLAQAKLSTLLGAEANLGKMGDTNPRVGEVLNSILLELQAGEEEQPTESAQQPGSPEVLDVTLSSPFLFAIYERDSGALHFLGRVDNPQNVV
Protocol: (§1) h-Ang-(1-12) Specificity and Cross-reactivity Assays: For specificity, a synthetic non-radiolabeled h-Ang-(1-12) standard (purity≥98%) was used. Briefly, 200 μL of the RIA buffer (50 mM PBS, 25 mM EDTA, 0.5% triton X-100, 0.05% sodium azide and 0.5% BSA, pH 7.4) containing 50 μL of mAb (1:2,000 dilution of IgG concentration 1.3 mg/mL), 50 μL of 125I-Ang-(1-12) [6-8 fmoles/tube, purity>99%] and 50 μL of different concentrations of non-radiolabeled human Ang-(1-12) peptide (0 to 10,000 fmol/0.2 mL RIA tube) were combined and the RIA tubes were incubated overnight for 20-22 hours at 4° C. At the end of incubation period, 50 μL of 1% γ-globulin were added, mixed, and the bound/free (B/Bo) forms of h-Ang-(1-12) were then separated by precipitating the bound (B) fraction with 200 μL of 23% polyethylene glycol (PEG). The bound and unbound (Bo) traces were separated by centrifuging the tubes at 3,000 rpm for 30 min at 4° C. The radioactivity corresponding to the antibody-bound antigen in the precipitate were measured in a PerkinElmer Wizard2 Gamma Counter. The binding data were analyzed and graphed using a statistical program (GraphPad Prism 8). To examine the cross-reactivity of the mAb with human and rat AGT or AGT-derived angiotensin peptides, several fold higher concentrations (AGT up to 10,000 fmol and angiotensin peptides up to 5,000 fmol) were used. Briefly, in a total of 200 μL of RIA buffer we added 50 μL of h-Ang-(1-12) mAb (1:2,000 dilution), 50 μL of ¹²⁵I-Ang-(1-12) and 50 μL of non-radiolabeled angiotensin peptides [Ang I, ([…]; SEQ ID NO:20); Ang-(1-9), ([…]; SEQ ID NO:23); Ang II, ([…]; SEQ ID NO:21); Ang-(1-7), (DRVYIHP; SEQ ID NO:22) and rat Ang-(1-12), ([…]; SEQ ID NO:24)] or purified AGT protein (10,000 fmol per RIA tube) and after mixing the contents, the RIA tubes were incubated overnight (20-22 hours at 4° C.) and processed as described above.

Ang-(1-9) = molecular target: Ang-(1-9)
Protocol: as §1

Angiotensin-(1-7) = molecular target: T2, Angiotensin-(1-7)
T2 construct: also called Ang-(1-7)
T2 peptide: DRVYIHP
Protocol: as §1

[2] = molecular target: T3, purified human angiotensinogen (AGT) protein (human, UniProt P01019 25-476)
T3 construct: also called human AGT
T3 sequence (looked up): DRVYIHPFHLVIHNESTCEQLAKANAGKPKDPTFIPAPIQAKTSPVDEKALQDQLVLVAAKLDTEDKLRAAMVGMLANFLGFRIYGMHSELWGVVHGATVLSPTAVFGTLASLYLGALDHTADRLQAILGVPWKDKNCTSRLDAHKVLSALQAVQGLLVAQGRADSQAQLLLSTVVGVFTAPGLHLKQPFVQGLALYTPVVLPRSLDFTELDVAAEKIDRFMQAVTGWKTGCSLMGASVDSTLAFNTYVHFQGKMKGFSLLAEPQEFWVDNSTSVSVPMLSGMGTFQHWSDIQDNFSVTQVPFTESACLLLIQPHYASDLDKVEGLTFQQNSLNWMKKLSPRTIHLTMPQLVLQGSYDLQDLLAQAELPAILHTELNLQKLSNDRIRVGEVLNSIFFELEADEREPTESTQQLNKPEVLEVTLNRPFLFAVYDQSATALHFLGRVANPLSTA
Protocol: as §1

B1: h-Ang-(1-12) monoclonal antibody, Clone# 14B3 (Protein L purified mAb IgG) (antibody, V domains shown)
VH: DVQLQESGPGLVKPSQSLSLTCTVNGYSITSDFAWNWIRQFPGNKLEWMGYISYSGNTYYNPSLKSRISITRDTSKNQFFLQLNSVTTEDTATYYCARGSYYFDYWGQGTTLTVSS
VL: DIVMSQSPSSLAVSAGEKVTMSCKSSQSLLNSRTRKNYLAWYQQKPGQSPKLLIYWASTRESGVPDRFTGSGSGTDFTLTISSVQAEDLAVYYCKQSYNLRTFGGGTKLEIK
notes: also called Ang-(1-12)-mAb; h-Ang-(1-12) mAb
B1: no binding (tested: AGT up to 10,000 fmol) [1]; no binding (tested: angiotensin peptides up to 5,000 fmol) (Ang-(1-9)); no binding (tested: angiotensin peptides up to 5,000 fmol) (Angiotensin-(1-7)). B1: no binding (tested: AGT up to 10,000 fmol) [2].
